Earlier results as cited in publication PMC3079778.

How the values were obtained:
[1] = molecular target: CYP1A2 (Oryctolagus cuniculus) (UniProt P00187); experiment: FRET
[2] = molecular target: CYP2B4 (Oryctolagus cuniculus) (UniProt P00178); experiment: FRET
Sequence of UniProt P00178 (P00178 whole entry): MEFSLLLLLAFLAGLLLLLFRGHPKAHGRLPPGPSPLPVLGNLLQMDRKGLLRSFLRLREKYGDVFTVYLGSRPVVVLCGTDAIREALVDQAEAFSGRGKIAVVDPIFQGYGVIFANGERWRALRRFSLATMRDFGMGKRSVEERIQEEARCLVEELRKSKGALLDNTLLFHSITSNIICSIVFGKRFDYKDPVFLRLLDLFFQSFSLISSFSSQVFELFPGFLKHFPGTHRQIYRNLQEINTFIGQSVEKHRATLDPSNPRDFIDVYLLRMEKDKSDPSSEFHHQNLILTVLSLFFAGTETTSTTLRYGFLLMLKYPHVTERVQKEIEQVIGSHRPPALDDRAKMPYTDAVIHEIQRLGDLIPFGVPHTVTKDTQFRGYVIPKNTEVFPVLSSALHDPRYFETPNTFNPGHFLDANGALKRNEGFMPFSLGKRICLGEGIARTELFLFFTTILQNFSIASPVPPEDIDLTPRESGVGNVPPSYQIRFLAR

Sequence of UniProt P00187 (P00187 2-516): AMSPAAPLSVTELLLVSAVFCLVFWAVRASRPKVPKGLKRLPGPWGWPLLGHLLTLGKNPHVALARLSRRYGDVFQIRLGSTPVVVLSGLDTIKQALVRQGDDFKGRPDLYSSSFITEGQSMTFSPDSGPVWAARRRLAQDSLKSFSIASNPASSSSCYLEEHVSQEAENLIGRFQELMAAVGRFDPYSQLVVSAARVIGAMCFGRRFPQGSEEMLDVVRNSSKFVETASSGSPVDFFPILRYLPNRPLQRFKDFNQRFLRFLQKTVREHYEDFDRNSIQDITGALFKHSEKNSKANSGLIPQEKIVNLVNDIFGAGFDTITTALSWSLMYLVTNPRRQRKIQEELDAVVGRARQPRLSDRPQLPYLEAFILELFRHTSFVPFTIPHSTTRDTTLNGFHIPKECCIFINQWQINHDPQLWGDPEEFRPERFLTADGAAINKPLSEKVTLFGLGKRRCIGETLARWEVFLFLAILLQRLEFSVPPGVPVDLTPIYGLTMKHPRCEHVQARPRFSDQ

In the case of CPR (from UniProt P00389), the Kd [1] is given as 40 nM and the Kd [2] is given as 40 nM.
